The target in one experiment is human FGFR1c plus KLB (Homo sapiens, UniProt P11362+Q86Z14). As to the kind of experiment: FGF-21 receptor autophosphorylation In-Cell Western (pFGFR ICW) in CHO cells. The class given is cell-based. The following applies: CHO cells overexpressing human FGFR1c plus KLB, FGFR autophosphorylation. As to the method:
FIG. 1B-1 to FIG. 1B-4) The FGF induced FGFR autophosphorylation was measured via a specific and highly sensitive In-Cell Western (ICW) in CHO cells stably overexpressing human FGFR1c together with human betaKlotho (KLB). In-Cell Western assay is an immunocytochemical assay usually performed in microplate format. Target-specific primary antibodies and infrared-labelled secondary antibodies are used to detect target proteins in fixed cells, and fluorescent signal from each well is quantified (e.g. the In-Cell Western assay from LI-COR Biosciences, USA).
The cellular efficacy of FGF-21 or FGF-21 fusion proteins was measured using a specific and highly sensitive In-Cell Western (ICW) assay. The ICW assay is an immunocytochemical assay usually performed in microplate format.
(§1) CHO Flp-In cells (Invitrogen, Darmstadt, Germany) stable expressing the human FGFR1c together with human beta-Klotho (KLB) were used for FGF-21 receptor autophosphorylation assay using In-Cell Western. In order to determine the receptor autophosphorylation level, 2×10^4 cells/well were seeded into 96-well plates and grown for 48 h. Cells were serum starved with serum-free medium Ham's F-12 Nutrient Mix with GlutaMAX (Gibco, Darmstadt, Germany) for 3-4 h. The cells were subsequently treated with increasing concentrations of either human FGF-21, the indicated FGF-21 fusion protein, or other peptides for 5 min at 37° C. After incubation the medium was discarded and the cells were fixed in 3.7% freshly prepared para-formaldehyde for 20 min. Cells were permeabilized with 0.1% Triton-X-100 in PBS for 20 min. Blocking was performed with Odyssey blocking buffer (LICOR, Bad Homburg, Germany) for 2 h at room temperature. Anti-pFGFR Tyr653/654 (New England Biolabs, Frankfurt, Germany) was incubated overnight at 4° C. After incubation of the primary antibody, cells were washed with PBS+0.1% Tween20. The secondary anti-Mouse 800CW antibody (LICOR, Bad Homburg, Germany) was incubated for 1 h at room temperature. Subsequently cells were washed again with PBS+0.1% Tween20 and infrared dye signals were quantified with an Odyssey imager (LICOR, Bad Homburg, Germany). Results were normalized by quantification of DNA with TO-PRO3 dye (Invitrogen, Karlsruhe, Germany). FIG. 1B-1 to FIG. 1B-4 show the results from an ICW with CHO cells overexpressing human FGFR1c plus KLB.

The next experiment deals with T1, human GLP-1 receptor (Homo sapiens, UniProt P43220).
T1 construct: expressed in transfected cells
T1 sequence (P43220 24-463): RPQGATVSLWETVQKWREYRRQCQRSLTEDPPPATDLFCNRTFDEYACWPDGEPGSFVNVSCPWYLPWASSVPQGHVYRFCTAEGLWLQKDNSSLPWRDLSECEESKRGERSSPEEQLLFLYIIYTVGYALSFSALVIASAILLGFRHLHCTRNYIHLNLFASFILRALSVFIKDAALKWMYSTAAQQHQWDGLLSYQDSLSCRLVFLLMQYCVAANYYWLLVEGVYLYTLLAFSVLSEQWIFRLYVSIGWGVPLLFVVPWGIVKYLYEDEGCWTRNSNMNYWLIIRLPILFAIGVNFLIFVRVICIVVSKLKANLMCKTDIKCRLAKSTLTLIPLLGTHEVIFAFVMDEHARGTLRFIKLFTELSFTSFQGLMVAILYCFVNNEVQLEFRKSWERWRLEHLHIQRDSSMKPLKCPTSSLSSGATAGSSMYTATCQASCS
As to the kind of experiment: In vitro cellular assay for human GLP-1 receptor efficacy (cAMP HTRF, HEK-293). The class given is cell-based. The following applies: HEK-293 cells stably expressing human GLP-1 receptor, read-out: hGLP-1R cAMP EC50. As to the method: The cAMP content of the cells was determined using a kit from Cisbio Corp. (cat. no. 62AM4PEC) based on HTRF (Homogenous Time Resolved Fluorescence).
The cAMP content of cells was determined using a kit from Cisbio Corp. (cat. no. 62AM4PEC) based on HTRF (Homogenous Time Resolved Fluorescence). For preparation, cells were split into T175 culture flasks and grown overnight to near confluence in medium (DMEM/10% FBS). Medium was then removed and cells washed with PBS lacking calcium and magnesium, followed by proteinase treatment with accutase (Sigma-Aldrich cat. no. A6964). Detached cells were washed and resuspended in assay buffer (1×HBSS; 20 mM HEPES, 0.1% BSA, 2 mM IBMX) and cellular density determined. They were then diluted to 4×10^5cells/mL and 25 μL-aliquots dispensed into the wells of 96-well plates. For measurement, 25 μL of test compound in assay buffer was added to the wells, followed by incubation for 30 minutes at room temperature.
For orientation: Time-resolved FRET reads energy transfer from a long-lived donor to a nearby acceptor.

For the next experiment, the system named is MAP kinase ERK1/2. As to the kind of experiment: ERK1/2 phosphorylation In-Cell Western (pERK ICW) in CHO cells overexpressing human FGFR1c plus KLB. The class given is cell-based. The following applies: ERK1/2 phosphorylation Thr202/Tyr204. As to the method: FIG. 1C-1 to FIG. 1C-3) Dose dependent in vitro activation of the downstream effector ERK. Activation of the downstream effector of FGF signaling, the MAP kinase ERK1/2, was determined via In-Cell Western assay in CHO cells stably overexpressing human FGFR1c and KLB using an antibody directed against the ERK1/2 phosphorylated amino acid residues threonine 202 and tyrosine 204.
as §1
To assess the activation of a downstream effector of FGFR signalling by FGF-21-GLP-1RA fusion proteins the phosphorylation of MAP kinases ERK1/2 were analysed. The same ICW protocol as described above was used, simply the primary antibody was replaced by anti-phospho-p44/42 MAPK (Erk1/2) (Thr202/Tyr204) (New England Biolabs, Frankfurt, Germany). FIG. 1C-1 to FIG. 1C-3 show the results from ICW with CHO cells overexpressing human FGFR1c plus KLB and detection of ERK1/2 phosphorylation.

For the next experiment, the system named is ob/ob mice. Description: Treatment of ob/ob mice by chronic infusion (Alzet pumps, 11 days). The class given is in vivo, mouse. The following applies: for Relative body weight change (%): after 11 days of treatment. The procedure:
Female ob/ob mice (B6.V-LEP OB/J, age of 9 weeks) were obtained from Charles Rivers Laboratories (Sulzfeld, Germany). Mice were randomly assigned to treatment or vehicle groups, and the randomization was stratified by body weight and fed blood glucose levels. The animals were housed in groups of 8 at 23° C. and on a 12 h light-dark cycle. All experimental procedures were conducted according to German Animal Protection Law. Mice were fed ad libitum with standard rodent chow during the drug treatment periods. Body weight and food intake was recorded every other day throughout the study.
Ob/ob mice were treated with vehicle (PBS), 0.03, 0.1, 0.3, and 1.0 mg·kg^−1·day^−1 recombinant Exenatide-IEGR-FGF-21 (SEQ ID NO: 15) via chronic infusion by Alzet pumps (type 1004) over 11 days.
At the end of the study liver weight and liver triglycerides were analysed.
Two days before pump implantation and after 11 days of treatment blood glucose was measured by tail tip bleeding under fed conditions. As shown in FIGS. 10 and 11 blood glucose levels of the chronic infused mice were decreased dose-dependently with highest effect at the dosage of 1.0 mg·kg^−1·day^−1 recombinant fusion protein.

The mark [1] stands for this setting: 0.03, 0.1, 0.3 and 1 mg/kg, end of study.

pEC50: −log10 of the molar value.

Chain of human FGFR1c plus KLB (P11362 22-822): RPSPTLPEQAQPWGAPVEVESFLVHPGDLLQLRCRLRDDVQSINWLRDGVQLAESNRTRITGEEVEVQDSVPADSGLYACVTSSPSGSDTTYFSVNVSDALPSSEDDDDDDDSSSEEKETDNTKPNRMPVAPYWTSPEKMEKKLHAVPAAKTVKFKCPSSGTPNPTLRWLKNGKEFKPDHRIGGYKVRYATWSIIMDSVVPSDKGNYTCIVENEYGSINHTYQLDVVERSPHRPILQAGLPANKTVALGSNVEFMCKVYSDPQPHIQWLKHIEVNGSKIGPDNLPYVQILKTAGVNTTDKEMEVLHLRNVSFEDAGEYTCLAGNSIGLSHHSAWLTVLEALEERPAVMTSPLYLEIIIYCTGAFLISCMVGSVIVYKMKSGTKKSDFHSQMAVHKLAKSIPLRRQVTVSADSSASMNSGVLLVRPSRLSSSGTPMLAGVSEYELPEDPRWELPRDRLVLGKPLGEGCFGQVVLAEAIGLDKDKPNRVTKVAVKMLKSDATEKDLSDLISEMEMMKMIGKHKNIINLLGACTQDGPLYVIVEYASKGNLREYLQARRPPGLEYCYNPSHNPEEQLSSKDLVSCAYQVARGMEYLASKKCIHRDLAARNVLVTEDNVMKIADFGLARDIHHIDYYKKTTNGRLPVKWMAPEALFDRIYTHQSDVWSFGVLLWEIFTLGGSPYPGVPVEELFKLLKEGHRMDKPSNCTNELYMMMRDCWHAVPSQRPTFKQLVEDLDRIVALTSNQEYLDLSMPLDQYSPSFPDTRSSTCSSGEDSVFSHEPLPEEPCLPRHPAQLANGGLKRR
Chain of human FGFR1c plus KLB (Q86Z14 whole entry): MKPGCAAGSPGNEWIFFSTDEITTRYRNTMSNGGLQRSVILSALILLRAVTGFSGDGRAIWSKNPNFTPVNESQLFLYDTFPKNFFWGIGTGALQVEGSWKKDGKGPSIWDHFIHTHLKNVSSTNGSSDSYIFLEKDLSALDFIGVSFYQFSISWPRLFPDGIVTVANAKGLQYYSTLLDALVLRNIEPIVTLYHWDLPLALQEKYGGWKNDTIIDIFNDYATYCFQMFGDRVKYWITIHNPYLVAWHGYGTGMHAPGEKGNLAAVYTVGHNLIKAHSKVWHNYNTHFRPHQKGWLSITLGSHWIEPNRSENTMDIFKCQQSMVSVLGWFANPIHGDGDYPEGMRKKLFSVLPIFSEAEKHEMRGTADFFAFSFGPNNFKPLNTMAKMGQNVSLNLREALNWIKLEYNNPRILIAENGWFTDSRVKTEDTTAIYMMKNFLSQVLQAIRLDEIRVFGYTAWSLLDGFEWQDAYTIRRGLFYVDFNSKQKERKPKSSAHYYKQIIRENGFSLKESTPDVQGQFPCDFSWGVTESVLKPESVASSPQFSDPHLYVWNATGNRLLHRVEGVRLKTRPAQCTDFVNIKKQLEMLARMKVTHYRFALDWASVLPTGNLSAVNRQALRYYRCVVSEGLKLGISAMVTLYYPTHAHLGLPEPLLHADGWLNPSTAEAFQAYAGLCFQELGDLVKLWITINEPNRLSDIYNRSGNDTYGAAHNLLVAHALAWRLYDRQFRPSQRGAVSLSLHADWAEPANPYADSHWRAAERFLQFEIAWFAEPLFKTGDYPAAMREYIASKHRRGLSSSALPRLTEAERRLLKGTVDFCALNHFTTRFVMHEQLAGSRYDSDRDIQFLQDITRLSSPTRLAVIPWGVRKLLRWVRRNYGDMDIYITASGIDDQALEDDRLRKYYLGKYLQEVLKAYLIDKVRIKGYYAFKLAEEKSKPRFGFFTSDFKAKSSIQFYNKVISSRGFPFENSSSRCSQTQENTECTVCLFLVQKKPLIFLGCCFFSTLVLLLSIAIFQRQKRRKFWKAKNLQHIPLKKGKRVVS

In the case of “Exenatide-APSCPAS-FGF21: fusion protein, linker based on PAS sequence plus Cystein for potential modification”, the pEC50 is 6.71 in the experiment with human FGFR1c plus KLB, 10.88 in the experiment with human GLP-1 receptor and 7.96 in the experiment on MAP kinase ERK1/2.

In the case of “Exenatide-APSPAS-FGF21: fusion protein, linker based on PAS sequence”, the pEC50 is 8.39 with human FGFR1c plus KLB, 11.52 with human GLP-1 receptor and 9.57 with MAP kinase ERK1/2.

For the substance “Exenatide-FGF21-GG-ABD-GG-FGF21: fusion protein, GG-ABD-GG = linker”, the negative-log EC50 (pEC50) in the experiment with human FGFR1c plus KLB was 7.43; with human GLP-1 receptor it was 10.67; in the experiment on MAP kinase ERK1/2, 8.36.

Regarding “Exenatide-FGF21-GG-ABD: fusion protein, GG-ABD = linker (albumin binding domain)”, the pEC50 with human FGFR1c plus KLB is 7.10; with human GLP-1 receptor, 11.10; in the experiment with MAP kinase ERK1/2 it was 7.05.

“Exenatide-FGF21: fusion protein of exenatide and human FGF-21 His29-Ser209 without linker”: the pEC50 was 8.89 in the experiment with human FGFR1c plus KLB, 11.39 with human GLP-1 receptor and 9.29 with MAP kinase ERK1/2.

Turning to “Exenatide-GG-ABD-GG-FGF21: fusion protein, GG-ABD-GG = linker”, the negative logarithm of the EC50 (pEC50) in the experiment with human GLP-1 receptor was 10.80.

As for “Exenatide-GGGGS-His-GGGGS-ABD-GG-FGF21: fusion protein, GGGGS-His-GGGGS-ABD-GG = linker”, the pEC50 was 11.60 with human GLP-1 receptor and 8.30 in the experiment on MAP kinase ERK1/2.

Turning to “Exenatide-GGGRR-FGF21: fusion protein, GGGRR protease cleavage site linker”, the figures for the negative logarithm of the EC50 (pEC50) with human FGFR1c plus KLB, with human GLP-1 receptor and in the experiment with MAP kinase ERK1/2 were 8.13, 11.11 and 9.01, respectively.

Regarding “Exenatide-GSGS-FGF21: fusion protein, GSGS = linker”, the pEC50 with human FGFR1c plus KLB is 7.72; with human GLP-1 receptor, 11.14; in the experiment on MAP kinase ERK1/2 it was 9.28.

For the substance “Exenatide-IEGQ-FGF21: fusion protein, IEGQ = linker (mutated/defect Factor Xa cleavage site)”, the pEC50 was 7.45 with human FGFR1c plus KLB, 11.21 with human GLP-1 receptor and 9.10 with MAP kinase ERK1/2.

For “Exenatide-IEGR-FGF21: fusion protein exenatide - Factor Xa cleavage site IEGR linker - FGF21”, the pEC50 was 8.72 with human FGFR1c plus KLB, 11.40 with human GLP-1 receptor and 9.40 in the experiment on MAP kinase ERK1/2. Also, the “Relative body weight change (%)” value in the experiment with ob/ob mice (0.03 mg/kg, chronic infusion) is on record as “+6.6%”; in the experiment with ob/ob mice (0.1 mg/kg, chronic infusion) it was “+1.1%”; in the experiment with ob/ob mice (0.3 mg/kg, chronic infusion), −2.6%; in the experiment with ob/ob mice (1 mg/kg, chronic infusion), −17.8%. The “highest reduction of body weight” value in the experiment with ob/ob mice (1 mg/kg, chronic infusion) amounted to 17.8%. In the experiment with ob/ob mice (0.03, 0.1, 0.3 and 1 mg/kg, chronic infusion), the body weight entry is given as “dose dependent decrease”. For the same substance, the liver triglycerides result in the experiment on ob/ob mice (setting [1]) is “dose dependent decrease”. For the same substance, the total liver weight result with ob/ob mice (setting [1]) is listed as “dose dependent decrease”. For the same substance, the blood glucose entry with ob/ob mice (0.03, 0.1, 0.3 and 1 mg/kg, fed, after 11 days of chronic infusion) is recorded as “dose dependent decrease”.

For the substance “Lixisenatide-FGF21: fusion protein of lixisenatide and FGF21 without linker”, the pEC50 with human FGFR1c plus KLB is 8.43; in the experiment with human GLP-1 receptor it was 11.43; with MAP kinase ERK1/2 it was 9.62.

On to “Lixisenatide-IEGR-FGF21: fusion protein lixisenatide - Factor Xa cleavage site - FGF21”, for which the values for the pEC50 with human FGFR1c plus KLB, in the experiment with human GLP-1 receptor and in the experiment with MAP kinase ERK1/2 were 8.51, 11.42 and 9.00, respectively.

What is called pEC50 is −log10 of the EC50, conventionally taken in molar units.

Values taken from patent publication US20190085043A1, “FUSION PROTEINS FOR TREATING A METABOLIC SYNDROME” (SANOFI, priority 2012, published 2019).
